T1: Recombinant human PD-L2-His tag (ACROBiosystems, #PD2-H5220) (human, UniProt Q9BQ51 20-219)
T1 construct: Bought protein; also called sPD-L2; human PD-L2-His tag protein; not shown: His tag
T1 sequence (looked up): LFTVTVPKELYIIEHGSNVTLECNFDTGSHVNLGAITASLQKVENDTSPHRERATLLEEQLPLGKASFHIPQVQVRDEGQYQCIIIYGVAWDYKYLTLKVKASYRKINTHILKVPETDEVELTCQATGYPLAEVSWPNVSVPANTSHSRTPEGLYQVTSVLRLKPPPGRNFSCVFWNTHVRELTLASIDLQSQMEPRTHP

B1: monovalent anti-CD28/sPD-1 wt (bispecific antibody)
light: DIELTQSPASLAVSLGQRATISCRASESVEYYVTSLMQWYQQKPGQPPKLLIFAASNVESGVPARFSGSGSGTNFSLNIHPVDEDDVAMYFCQQSRKVPYTFGGGTKLEIKRTVAAPSVFIFPPSDEQLKSGTASVVCLLNNFYPREAKVQWKVDNALQSGNSQESVTEQDSKDSTYSLSSTLTLSKADYEKHKVYACEVTHQGLSSPVTKSFNRGEC
heavy: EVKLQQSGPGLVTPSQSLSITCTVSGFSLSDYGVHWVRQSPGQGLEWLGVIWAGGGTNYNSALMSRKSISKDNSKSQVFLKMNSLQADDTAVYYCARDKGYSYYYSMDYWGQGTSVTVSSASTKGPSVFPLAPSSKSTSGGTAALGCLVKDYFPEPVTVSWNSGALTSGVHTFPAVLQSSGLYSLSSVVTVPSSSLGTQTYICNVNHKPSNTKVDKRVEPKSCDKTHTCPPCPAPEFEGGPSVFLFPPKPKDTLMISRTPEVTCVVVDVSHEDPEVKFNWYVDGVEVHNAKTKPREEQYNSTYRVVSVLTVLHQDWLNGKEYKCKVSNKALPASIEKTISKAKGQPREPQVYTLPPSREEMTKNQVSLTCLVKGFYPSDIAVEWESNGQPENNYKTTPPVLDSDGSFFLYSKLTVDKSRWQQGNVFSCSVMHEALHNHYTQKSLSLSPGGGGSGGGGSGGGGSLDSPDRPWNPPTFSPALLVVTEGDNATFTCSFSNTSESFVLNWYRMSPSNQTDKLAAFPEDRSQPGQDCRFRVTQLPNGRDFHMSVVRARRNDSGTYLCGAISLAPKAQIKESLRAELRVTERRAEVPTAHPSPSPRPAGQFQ
chain: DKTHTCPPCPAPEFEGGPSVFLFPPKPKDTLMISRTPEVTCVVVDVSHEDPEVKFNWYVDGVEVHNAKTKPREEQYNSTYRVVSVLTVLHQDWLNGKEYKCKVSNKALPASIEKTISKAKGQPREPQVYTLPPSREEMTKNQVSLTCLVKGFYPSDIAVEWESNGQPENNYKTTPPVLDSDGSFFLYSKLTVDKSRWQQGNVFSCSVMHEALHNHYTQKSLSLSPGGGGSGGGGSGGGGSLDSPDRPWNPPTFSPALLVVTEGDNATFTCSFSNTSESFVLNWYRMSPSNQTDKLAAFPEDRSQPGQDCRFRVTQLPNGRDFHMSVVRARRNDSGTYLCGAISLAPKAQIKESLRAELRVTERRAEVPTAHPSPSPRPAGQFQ
notes: also called Monovalent anti-CD28/sPD-1 Wild type structure; bispecific protein complex A:B-C-X:C'-Y
B2: monovalent anti-CD28/sPD-1 mut (bispecific antibody)
light: B1 light
heavy: EVKLQQSGPGLVTPSQSLSITCTVSGFSLSDYGVHWVRQSPGQGLEWLGVIWAGGGTNYNSALMSRKSISKDNSKSQVFLKMNSLQADDTAVYYCARDKGYSYYYSMDYWGQGTSVTVSSASTKGPSVFPLAPSSKSTSGGTAALGCLVKDYFPEPVTVSWNSGALTSGVHTFPAVLQSSGLYSLSSVVTVPSSSLGTQTYICNVNHKPSNTKVDKRVEPKSCDKTHTCPPCPAPEFEGGPSVFLFPPKPKDTLMISRTPEVTCVVVDVSHEDPEVKFNWYVDGVEVHNAKTKPREEQYNSTYRVVSVLTVLHQDWLNGKEYKCKVSNKALPASIEKTISKAKGQPREPQVYTLPPSREEMTKNQVSLTCLVKGFYPSDIAVEWESNGQPENNYKTTPPVLDSDGSFFLYSKLTVDKSRWQQGNVFSCSVMHEALHNHYTQKSLSLSPGGGGSGGGGSGGGGSLDSPDRPWNPPTFSPALLVVTEGDNATFTCSFSNTSESFVLNWYRMSPSNQTDKLAAFPEDRSQPGQDCRFRVTQLPNGRDFHMSVVRARRNDSGTYLCSAISLAPYIQIKESLRAELRVTERRAEVPTAHPSPSPRPAGQFQ
chain: DKTHTCPPCPAPEFEGGPSVFLFPPKPKDTLMISRTPEVTCVVVDVSHEDPEVKFNWYVDGVEVHNAKTKPREEQYNSTYRVVSVLTVLHQDWLNGKEYKCKVSNKALPASIEKTISKAKGQPREPQVYTLPPSREEMTKNQVSLTCLVKGFYPSDIAVEWESNGQPENNYKTTPPVLDSDGSFFLYSKLTVDKSRWQQGNVFSCSVMHEALHNHYTQKSLSLSPGGGGSGGGGSGGGGSLDSPDRPWNPPTFSPALLVVTEGDNATFTCSFSNTSESFVLNWYRMSPSNQTDKLAAFPEDRSQPGQDCRFRVTQLPNGRDFHMSVVRARRNDSGTYLCSAISLAPYIQIKESLRAELRVTERRAEVPTAHPSPSPRPAGQFQ
notes: The sPD-1 fragments carry G124S, K131Y and A132I (numbering of full-length human PD-1); also called Mono Mut; Monovalent anti-CD28/sPD-1 Mutated structure
B3: bivalent anti-CD28/sPD-1 mut (bispecific antibody, human IgG1, kappa)
light: B1 light
heavy: B2 heavy
notes: The sPD-1 fragments carry G124S, K131Y and A132I; also called Bi Mut; Bivalent anti-CD28/sPD-1 Mutated structure

What was measured:
[1] = molecular target: T2, Recombinant human PD-L1-His tag (ACROBiosystems, #PD1-H5229) (human, UniProt Q9NZQ7 19-238); assay: Octet RED96e; PD-L1-His loaded at 10 µg/ml on HIS1K sensor; sample 378,8 nM
T2 construct: Bought protein; also called sPD-L1; human PD-L1-His tag protein; not shown: His tag
Experimental: (§1) FIG. 3a is a graph of Octet binding studies on sPD-L1. Recombinant human PD-L1-His tag (ACROBiosystems, #PD1-H5229) was loaded to His-sensor (HIS1K (Anti-Penta-His)) at 10 μg/ml and the binding of each construct was evaluated by Octet RED96e.
(§2) FIG. 3c is a graph depicting the KD values of anti-CD28/sPD-1 constructs on human PD-L1-His tag protein by Octet RED96e. The equilibrium dissociation constant (KD) is calculated as the ratio koff/kₒₙ (with koff:dissociation rates, and kₒₙ:association rates).
(§3) Anti-CD28/sPD-1 antibody fusion constructs were assessed for their ability to bind PD-1 ligands, PD-L1 and PD-L2 by Octet RED96e. Recombinant human PD-L1-His tag (ACROBiosystems, #PD1-H5229) or recombinant human PD-L2-His tag (ACROBiosystems, #PD2-H5220) were loaded to His-sensor (HIS1 K (Anti-Penta-His)) at 10 μg/ml. […] FIG. 3c is a summary of affinity (measured as Kd, M) for each construct on human PD-L1. […] FIG. 4c is a summary of affinity (measured as Kd, M) for each construct on human PD-L2.

[2] = molecular target: T2, Recombinant human PD-L1-His tag …; assay: Octet RED96e; PD-L1-His loaded at 10 µg/ml on HIS1K sensor; sample 75,8 nM
Experimental: as §1, §2, §3

[3] = molecular target: T1, Recombinant human PD-L2-His tag …; assay: Octet RED96e; PD-L2-His loaded at 10 µg/ml on HIS1K sensor; sample 378,8 nM
Experimental: (§4) FIG. 4a is a graph of Octet binding studies on sPD-L2. Recombinant human PD-L2-His tag (ACROBiosystems, #PD2-H5220) was loaded to His-sensor (HIS1 K (Anti-Penta-His)) at 10 μg/ml and the binding of each construct was evaluated by Octet RED96e.
(§5) FIG. 4c is a graph depicting the KD values of anti-CD28/sPD-1 constructs on human PD-L2-His tag protein by Octet RED96e. The equilibrium dissociation constant (KD) is calculated as the ratio koff/kₒₙ (with koff:dissociation rates, and kₒₙ:association rates).
as §3

[4] = molecular target: T1, Recombinant human PD-L2-His tag …; assay: Octet RED96e; PD-L2-His loaded at 10 µg/ml on HIS1K sensor; sample 75,8 nM
Experimental: as §4, §5, §3

[5] = molecular target: T2, Recombinant human PD-L1-His tag …; assay: Octet RED96e; PD-L1-His loaded at 10 µg/ml on HIS1K sensor; sample 277,8 nM
Experimental: as §1, §2, §3

[6] = molecular target: T1, Recombinant human PD-L2-His tag …; assay: Octet RED96e; PD-L2-His loaded at 10 µg/ml on HIS1K sensor; sample 277,8 nM
Experimental: as §4, §5, §3

[7] = molecular target: T1, Recombinant human PD-L2-His tag …; assay: Octet RED96e; PD-L2-His loaded at 10 µg/ml on HIS1K sensor; sample 55,6 nM
Experimental: as §4, §5, §3

[8] = molecular target: T2, Recombinant human PD-L1-His tag …; assay: Octet RED96e; PD-L1-His loaded at 10 µg/ml on HIS1K sensor; sample 55,6 nM
Experimental: as §1, §2, §3

Binder	Kd [1]	koff [1]	kon [1]	Kd [2]	koff [2]	kon [2]	Kd [3]	koff [3]	kon [3]	Kd [4]	koff [4]	kon [4]	further results
B1	35.1 nM	0.0122 s⁻¹	348000 M⁻¹ s⁻¹	23.3 nM	0.013 s⁻¹	559000 M⁻¹ s⁻¹	23.7 nM	0.00318 s⁻¹	134000 M⁻¹ s⁻¹	10 nM	0.00283 s⁻¹	282000 M⁻¹ s⁻¹	–
B2	2.17 nM	0.00061 s⁻¹	281000 M⁻¹ s⁻¹	1.57 nM	0.00083 s⁻¹	528000 M⁻¹ s⁻¹	1.33 nM	0.000183 s⁻¹	138000 M⁻¹ s⁻¹	1.05 nM	0.000342 s⁻¹	324000 M⁻¹ s⁻¹	–
B3	–	–	–	–	–	–	–	–	–	–	–	–	Kd [5]: 1.65 nM; koff [5]: 0.00055 s⁻¹; kon [5]: 334000 M⁻¹ s⁻¹; Kd [6]: 0.883 nM; koff [6]: 0.000153 s⁻¹; kon [6]: 174000 M⁻¹ s⁻¹; Kd [7]: 0.774 nM; koff [7]: 0.0003 s⁻¹; kon [7]: 387000 M⁻¹ s⁻¹; Kd [8]: 1.21 nM; koff [8]: 0.000698 s⁻¹; kon [8]: 578000 M⁻¹ s⁻¹

— patent US20250197499A1 (STEALTH IO, published 2025)
